Experimental data from US20160145328A1 (published 2016).
Numbering of substitutions follows the chain as printed. Names and notes keep the numbering of the source.

B1: scFv DP47 VH A33D - linker - common VL (scFv, name in Kabat numbering)
scFv: QVQLLESGGGLVQPGGSLRLSCAASGFTFSSYDMSWVRQAPGKGLEWVSAISGSGGSTYYADSVKGRFTISRDNSKNTLYLQMNSLRAEDTAVYYCAKSYGAFDYWGQGTLVTVSSGGGGSGGGGSGGGGSTDIQMTQSPSSLSASVGDRVTITCRASQSISSYLNWYQQKPGKAPKLLIYAYSDLQSGVPSGFSGSGSGTDFTLTISSLQPEDFATYYCQQLMTHPTTFGQGTKVEIKR
notes: also called A33D (scFv)
B2: scFv DP47 VH Y32E - linker - common VL (scFv)
scFv: B1 scFv with Y32E, D33A
notes: also called Y32E (scFv)
B3: scFv DP47 VH S35G - linker - common VL (scFv, name in Kabat numbering)
scFv: B1 scFv with D33A, S35G
notes: also called S35G (scFv)
B4: scFv DP47 VH S31D - linker - common VL (scFv)
scFv: B1 scFv with S31D, D33A
notes: also called S31D (scFv)
B5: scFv DP47 VH T28R - linker - common VL (scFv, name in Kabat numbering)
scFv: B1 scFv with T28R, D33A
notes: also called T28R (scFv)

Biological target: T1, protein A (UniProt P38507 37-477)
T1 construct: also called Protein A superantigen
Test: Heat/Cool phage ELISA: phage-displayed scFv, 80 C 10 min then 4 C 10 min, captured on coated protein A; signal as % of untreated sample
Protocol: The aggregation-resistance of clones was analyzed by measuring retention of signal after heat incubation in a phage ELISA format (McCafferty et al., 1990; Jespers et al., 2004). Wells of a Nunc Maxisorp Immuno-plate were coated overnight with protein A at a concentration of about 5 μg/ml in phosphate-buffered saline (PBS). The plate was washed once with PBS and blocked with about 4% (w/v) milk powder diluted in PBS (MPBS). Single colonies were picked from agar plates and grown overnight in 2×TY medium (containing about 16 g/L tryptone; about 10 g/L yeast extract; about 5 g/L NaCl, pH 7.0) supplemented with about 15 μg/ml tetracycline shaking at about 30° C. Cells were removed by centrifugation and phages were biotinylated directly in the culture supernatant by adding biotin-PEO₄-N-hydroxysuccinimide (Pierce; about 50 μM final concentration). For heat selection, supernatant was first incubated at about 80° C. for about 10 min and then at about 4° C. for about 10 min. Supernatant was added to the blocked ELISA wells. After three washes with PBS, bound phage particles were detected using an Extravidin-HRP conjugate (Sigma) and 3,3′,5,5′-tetramethylbenzidine (TMB) substrate. Absorbance was calculated by subtracting measurements at 450 and 650 nm.
The DP47-CDR1 mutants described above were paired with a common single variable light chain (VL; SEQ ID NO: 3) via a linker (SEQ ID NO: 4) in a scFv format (see the Materials and Methods section for full experimental details). […] Correctly folded scFv were captured by protein A ELISA and the absorbance signal of the treated sample was calculated as a percentage of the untreated sample.

| Binder | Retained binding to protein A [%] |
| --- | --- |
| B1 | 22 |
| B2 | 27 |
| B3 | 5 |
| B4 | 29 |
| B5 | 4 |
